Assay results from patent US20070048268A1.

Biological target: human IL-21 receptor (human) (UniProt Q9HBE5)
Assay: cell-based or functional assay

“human IL-21-saporin immunotoxin conjugate (from UniProt P20656 25-277)” gave a 3H-thymidine incorporation of MOLT-13 cells, relative to IL-21 treated cells of 70%, a growth inhibition of IM-9 cells, Alamar Blue proliferation assay, maximal conjugate concentration (250 ng/ml) of 79% and a growth inhibition of RAMOS cells, Alamar Blue proliferation assay, maximal conjugate concentration (250 ng/ml) of 65%. The growth of DEL cells, density relative to untreated cells was 25%, the growth of HuT-78 cells, density relative to untreated cells was 33% and the growth of HuT-102 cells, density relative to untreated cells was 20%. It also gave a growth of YT cells, density relative to untreated cells of 33%.
